T1: recombinant mouse soluble gpNMB (recombinant mouse gpNMB-FLAG-His) (mouse, UniProt Q99P91 23-502)
T1 sequence: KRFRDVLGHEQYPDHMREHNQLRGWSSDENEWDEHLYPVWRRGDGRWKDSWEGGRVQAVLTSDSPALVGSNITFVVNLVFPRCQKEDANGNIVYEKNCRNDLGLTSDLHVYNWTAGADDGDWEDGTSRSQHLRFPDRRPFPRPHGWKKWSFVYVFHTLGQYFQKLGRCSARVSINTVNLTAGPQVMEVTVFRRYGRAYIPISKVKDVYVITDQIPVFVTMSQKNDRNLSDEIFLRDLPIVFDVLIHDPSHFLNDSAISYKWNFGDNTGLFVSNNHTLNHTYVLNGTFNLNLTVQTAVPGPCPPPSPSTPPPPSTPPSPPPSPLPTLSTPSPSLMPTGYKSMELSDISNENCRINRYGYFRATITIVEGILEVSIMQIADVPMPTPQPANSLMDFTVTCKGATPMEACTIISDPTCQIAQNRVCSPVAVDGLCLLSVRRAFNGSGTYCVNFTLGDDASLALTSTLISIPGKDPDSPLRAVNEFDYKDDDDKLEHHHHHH

T2: recombinant human soluble gpNMB (recombinant human gpNMB-FLAG-His) (human, UniProt Q14956 23-498)
T2 sequence: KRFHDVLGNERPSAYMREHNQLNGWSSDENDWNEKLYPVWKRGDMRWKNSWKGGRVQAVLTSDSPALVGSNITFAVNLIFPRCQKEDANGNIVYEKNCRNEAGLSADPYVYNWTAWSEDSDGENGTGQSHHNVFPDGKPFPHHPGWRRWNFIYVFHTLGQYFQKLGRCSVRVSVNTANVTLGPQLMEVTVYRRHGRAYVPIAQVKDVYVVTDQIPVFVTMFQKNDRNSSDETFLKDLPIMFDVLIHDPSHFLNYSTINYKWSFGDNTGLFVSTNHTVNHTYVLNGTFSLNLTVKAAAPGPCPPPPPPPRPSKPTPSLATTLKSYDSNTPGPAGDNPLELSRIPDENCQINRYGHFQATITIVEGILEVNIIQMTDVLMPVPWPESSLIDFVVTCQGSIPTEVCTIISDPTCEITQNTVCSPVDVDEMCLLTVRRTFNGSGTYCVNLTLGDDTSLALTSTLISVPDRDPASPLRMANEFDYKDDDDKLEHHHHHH


Key:
[1] = target: T1, recombinant mouse soluble gpNMB …; assay: SPR, antibody 100 nM over captured gpNMB-FLAG-His, 25C
[2] = target: T2, recombinant human soluble gpNMB …; assay: as above
[3] = target: T2, recombinant human soluble gpNMB …; assay: antigen ELISA, vs hGPN18-2_H2L3
[4] = target: T2, recombinant human soluble gpNMB …; assay: antigen ELISA

Kd [1] [nM]	koff [1] [s⁻¹]	kon [1] [M⁻¹ s⁻¹]	Kd [2] [nM]	koff [2] [s⁻¹]	kon [2] [M⁻¹ s⁻¹]	Relative binding activity [3]	EC50 [4] [nM]	Binder
9.1	0.0061	670000	–	–	–	–	–	1-5E (antibody, V domains shown, obtained by immunization with a vaccine peptide of a previous report; also called vaccine peptide antibody) VH: EVQLQQSGAELVRSGASVKLSCTASGFNIKDYYMHWVKQRPDQGLEWIGWIDPENGDTEYAPKFQGKATMTADTSPNTAYLQLSSLTSEDTAVYYCNGVYYGSRGFFDYWGQGTTLTVSS VL: not shown
12	0.0018	150000	1.4	0.00049	340000	–	–	GPN06-1 (antibody, V domains shown, monoclonal with mouse IgG constant regions) VH: QVQLQQPGAEIVRPGASVKLSCKASGYTFTDNWMGWVKQRPGQGLEWIGAIDPSDSFTNYNQNFKGKATLTVDTSSSTAYMQLSSLTSEDSAVYFCTRSGYYGSPKLGGDYWGQGTTLTVSS VL: QIVLTQSPAIMSASLGEEITLTCSASSSISYMHWYQQKSGTSPKLLIYSTSNLASGVPSRFSGSGSGTFYSLTISSVEAEDAADYYCHQWNSYPCTFGGGTKLEIK
3.8	0.00012	30000	0.32	1.5e-05	47000	–	–	GPN18-4 (antibody, V domains shown, monoclonal with mouse IgG constant regions) VH: QVQLQQSGAELTKPGTSVKMSCKASGYTLSSYWMNWIKQRPGQGLEWIGTINPSNNYTAYNLKFKDKAMLTADKSSSTAYMQLSSLTSEDSAVYYCATWGYWGQGTTLTVSS VL: DIVMTQSHKFMSTSVGDRVSITCKASQDVSTAVAWHQQKPGQPPKLLIYSASYRYTGVPDRFTGSGSGTDFTFTISSVQTEDLAIYYCQHHYTTTWTFGGGTKLEIR
–	–	–	–	–	–	0.1	84.8	hGPN18-2_H2L3 VL E39A (antibody, V domains shown) VH: QVQLVQSGPGLVQPTQTLTLTCSFSGFSLSTSVMGVGWIRQPSGKGLEWLADIWWDDDKDYNPSLKSRLTISKDTSKNQVVLTMTNMDTVDTATYYCARTYYSNYEYYGMDYWGQGTLVTVSS VL: DIVMTQSPDSLAVSLGERATINCRSSQTIILSNGNTYLAWYQQKPGQPPKLLIYKVSNRFSGVPDRFSGSGSGTDFTLTISSLQAEDVAVYYCFQGSHVPFTFGSGTKLEIKR
–	–	–	–	–	–	1.12	2.28	hGPN18-2_H2L3 VL F60A (antibody, V domains shown) VH: QVQLVQSGPGLVQPTQTLTLTCSFSGFSLSTSVMGVGWIRQPSGKGLEWLADIWWDDDKDYNPSLKSRLTISKDTSKNQVVLTMTNMDTVDTATYYCARTYYSNYEYYGMDYWGQGTLVTVSS VL: DIVMTQSPDSLAVSLGERATINCRSSQTIILSNGNTYLEWYQQKPGQPPKLLIYKVSNRASGVPDRFSGSGSGTDFTLTISSLQAEDVAVYYCFQGSHVPFTFGSGTKLEIKR
2.9	0.00036	130000	2.9	0.00037	130000	–	–	GPN15-3 (antibody, V domains shown, monoclonal with mouse IgG constant regions) VH: QVTLKESGPGILQPSQTLSLTCSFSGFSLTTSGMGVGWIRQPSGKGLEWLADMWWDDDKNYNPSLKSRLTISKDNSKKQVFLKIASVDTADTATYYCARRVYSSWFAYWGQGTLVTVSA VL: DIVMTQSQKFMSTSVGDRVSVTCKASQNVGANVAWYQQKPGQSPKTLIYSASYRYGGVPDRFTGSGSGTDFTFTITNVQSEDLAEYFCQQYNNYPLTFGAGTKLDLK
2	0.00028	140000	0.0035	6e-07	170000	–	–	GPN15-2 (antibody, V domains shown, monoclonal with mouse IgG constant regions) VH: QVQLQQPGAELVKPGASVKMSCKASGYTFTNHNMHWVKQTPGQGLEWIGAFYTGNGDTSYNQKFKGKATLTADKSSSTAYIQLSSLTSEDSAVYYCARERYDGYYIAMDYWGQGTSVTVSS VL: QIVLTQSPAFMSVSPGEKVTMTCSASSSVYYMFWYQQKPRSSPKPWIYLTSKLASGVPARFSGSGSGTSYSVTISSMEAEDAATYYCQQWSSNPQWTFGGGTKLEIK
24	0.00091	38000	14	0.00054	38000	–	–	GPN18-1 (antibody, V domains shown, monoclonal with mouse IgG constant regions) VH: QVTLKESGPGILQPSQTLSLTCSFSGFSLSTSVMGVGWIRQPSGKGLEWLADIWWDDDKDYNPSLKSRLTISKDTSKNQVFLKIASVDTADTATYYCARAYYSNYEYYGMDYWGQGTSVTVSS VL: DVLMTQTPLSLPVSLGDQASISCRSSQSIVHSNGNTYLEWYLQKPGQSPKLLIYKVSNRFSGVPDRFSGSGSGTDFTLKISRVEAEDLGVYYCFQGSHVPFTFGSGTKLEIK
3.3	7.9e-05	24000	2.2	6.8e-05	31000	–	–	GPN18-2 (antibody, V domains shown, monoclonal with mouse IgG constant regions) VH: QVTLKESGPGILQPSQTLSLTCSFSGFSLSTSVMGVGWIRQPSGKGLEWLADIWWDDDKDYNPSLKSRLTISKDTSKNQVFLKIASVDTADTATYYCARTYYSNYEYYGMDYWGQGTSVTVSS VL: DVLMTQTPLSLPVSLGDQASISCRSSQTIILSNGNTYLEWYLQKPGQSPKLLIYKVSNRFSGVPDRFSGSGSGTDFTLKISRVEAEDLGVYYCFQGSHVPFTFGSGTKLEIK
49	0.00099	20000	23	0.00059	26000	–	–	GPN18-7 (antibody, V domains shown, monoclonal with mouse IgG constant regions) VH: QVTLKESGPGILQPSQTLSLTCSFSGFSLSTSVMGVGWIRQPSGKGLEWLADIWWDDDKDYNPSLKSRLTISKDTSKNQVFLKIASVDTADTATYYCARAYYSNFEYYGMDYWGQGTSVTVSS VL: DVLMTQIPLSLPVSLGDQASISCRSSQTIVHSNGNTYLEWYLQKPGQSPKLLIYKVSNRFSGVPDRFSGSGSGTDFTLKISRVEAEDLGVYYCFQGSHVPFTFGSGTKLEIK
31	0.00098	32000	24	0.00065	27000	–	–	GPN18-6 (antibody, V domains shown, monoclonal with mouse IgG constant regions) VH: EVQLQQSGPELVMPGSSVKISCKASGYTFTDYYMNWVRQSHGKSLEWIGDINPINGDITYNQKFKGKATLTVDKSSSTDYMELRGLTSEDSAVYYCAREAFFGYKGNYFDYWGQGTTLTVSS VL: not shown
7.7	0.0007	91000	2	0.0003	150000	–	–	GPN18-5 (antibody, V domains shown, monoclonal with mouse IgG constant regions) VH: QVQLQQSGAELAKPGTSVKMSCKASGYTFTTYWMNWVKQRPGQDLEWIGAINPSNDYTEYNQKFKDKAILTADKSSNTAYMQLSSLTSEDSAVYYCGRSYSPDYWGQGTTLTVSS VL: DIVMTQSQKFMSTSVGDRVSVTCKASQNVDNHVAWHQQKPGQSPKALIYSASYRYSGVPDRFTGSGSGTDFTLTIRDVQSEDLADYFCQQYKSYPFTFGSGTELEIK
4.9	0.00037	75000	13	0.001	81000	–	–	GPN11-10 (antibody, V domains shown, monoclonal with mouse IgG constant regions) VH: QVNLLQSGAALVKPGASVRLSCKTSGYTFTDCYIHWVRQSHGKSLEWIGFINPNSGYTFYNEKFKSKATLTVAKSTNTAYMELSRLTSEDSATYFCTRGDYYTSNLYDWFAYWGQGTLVTVSS VL: DTVMTQSPASMSTSVGERVTVNCKASQTVGTVVAWFQQKPGQSPKRLIYWATNRHTGVPDRFTGSGFGRDFSLTISNVEAEDLAVYYCLQYGSVPPTFGGGTKLELK
2.6	0.00042	160000	–	–	–	–	–	GPN09-1 (antibody, V domains shown, monoclonal with mouse IgG constant regions) VH: QVQLKASGPGLVQPSQTLSLTCTVSGLSLTSININWIRQPPGKGLEWMGVIWSDGDTDFNSAVKSRLSISRDTSKSQVFLNMNSLQTEDTAMYFCARGIRDWGQGVMVTVSS VL: DIVMTQTPLSLSVAIGQSASISCKSSQSLKYSDGKTYLNWVFQSPGQSPKRLIYQVSKLDSGVPDRFSGTGSETDFTLKISRVEAEDLGVYYCCQGSYSPHTFGSGTKLEIK
20	0.0013	61000	3.3	0.00016	48000	–	–	GPN05-1 (antibody, V domains shown, monoclonal with mouse IgG constant regions) VH: QVQLQQSGAELVRPGTSVKVSCKASGYAFSNHLIEWVKQRPGQGLEWIGVINPGSGGTNYIEKFKGKATLTADKSSSTAYMQLSSLTSDDSAVYFCARGANWDVGFAYWGQGTLVTVSA VL: EIQMTQSPSSMSASLGDRITITCQATQDIVKNLNWYQQKPGKPPSFLIYYATELAEGVPSRFSGSGSGSDFSLTISNLESEDFADYYCLQFHEFPRTFGGGTKLEIK

— EP4772193A1 (Teijin Pharma Limited, dated 2026)
